Experimental data reported in patent US20240109955A1.

Columns and labels:
Assay in all cases: cell-based or functional assay
[1] = target: SARS-CoV-2 Omicron BQ.1.1 spike protein (SARS-CoV-2)
[2] = target: SARS-CoV-2 Omicron BQ.1 spike protein (SARS-CoV-2)
[3] = target: SARS-CoV-2 Omicron XBB spike protein (SARS-CoV-2)
[4] = target: SARS-CoV-2 Omicron BA.4.6 spike protein (SARS-CoV-2)
[5] = target: SARS-CoV-2 Omicron BF.7 spike protein (SARS-CoV-2)
[6] = target: SARS-CoV-2 Omicron BA.2.75.2 spike protein (SARS-CoV-2)
[7] = target: SARS-CoV-2 Omicron BA.4/5 spike protein (SARS-CoV-2)

B1: MX1041 (bispecific antibody)
chain: QTVVTQEPSFSVSPGGTVTLTCGLSSGSVSTAYFPSWYQQTPGQAPRTLIYGTNTRSSGVPDRFSGSILGNKAALTITGAQADDESDYYCVLYMGRGIVVFGGGTKLTVLGGSSGEIVLTQSPGTLSLSPGETATLSCRASQSFSSDLAWYQQKPGQAPRLLIYGASSRATGIPDRFSGSGSGTDFTLTISRLEPADFAVYYCQQYGSSPPVTFGGGTKVEIKGGGGSGGSGSGGGGSASGSGEVQLVESGGGLIQPGGSLRLSCAASGVIVSYNYMNWVRQAPGKGLEWVSVIYSGGSTFYADSVRGRFTISRDNSKNTLYLQMNSLRAEDTAVYYCARDLGPAGAFDIWGLGTMVTVSSGGSSGQVQLVESGGGVVQPGRSLRLSCAASGFTLSSYGMHWVRQAPGKGLEWVAVISYDGSNKYYVDSVKGRFTISRDNSKNTLYLQMNSLRAEDTAVYYCRWAYWELLPDYYYGMDVWGQGTTVTVSSASGGSGDKTHTCPPCPAPELLGGPSVFLFPPKPKDTLMISRTPEVTCVVVDVSHEDPEVKFNWYVDGVEVHNAKTKPREEQYNSYVVSVLTVLHQDWLNGKEYKCKVSNKALPAPIEKTISKAKGQPREPQVYTLPPSRDELTKNQVSLTCLVKGFYPSDIAVEWESNGQPENNYKTTPPVLDSDGSFFKKLTVDKSRWQQGNVFSCSVLHEALHSHYTQKSLSLSPG
IC50, pseudovirus neutralization [1]: 0.0493 µg/mL | IC80, pseudovirus neutralization [1]: 0.11 µg/mL | IC50, pseudovirus neutralization [2]: 0.0429 µg/mL | IC80, pseudovirus neutralization [2]: 0.188 µg/mL | IC50, pseudovirus neutralization [3]: 0.0691 µg/mL | IC80, pseudovirus neutralization [3]: 0.398 µg/mL | IC50, pseudovirus neutralization [4]: 0.0257 µg/mL | IC80, pseudovirus neutralization [4]: 0.0671 µg/mL | IC50, pseudovirus neutralization [5]: 0.00835 µg/mL | IC80, pseudovirus neutralization [5]: 0.0304 µg/mL | IC50, pseudovirus neutralization [6]: 0.0129 µg/mL | IC80, pseudovirus neutralization [6]: 0.0362 µg/mL | IC50, pseudovirus neutralization [7]: 0.012 µg/mL | IC80, pseudovirus neutralization [7]: 0.0262 µg/mL
